The record followed here is paper PMC4925323 (Molecular microbiology, 2016).

This series deals with the molecule itself. Description: crystal structure.

B1: Listeria monocytogenes PrsA1 (residues 22-294), wild type (domain or fragment)
chain: CGSSAVIKTDAGSVTQDELYEAMKTTYGNEVVQQLTFKKILEDKYTVTEKEVNAEYKKYEEQYGDSFESTLSSNNLTKTSFKENLEYNLLVQKATEANMDVSESKLKAYYKTWEPDITVRHILVDDEATAKEIQTKLKNGEKFTDLAKEYSTDTATSTNGGLLDPFGPGEMDETFEKAAYALENKDDVSGIVKSTYGYHLIQLVKKTEKGTYAKEKANVKAAYIKSQLTSENMTAALKKELKAANIDIKDSDLKDAFADYTSTSSTSSTTTSN
As to B1, the “stoichiometry N” value is 2.
